Experimental data as given in US20240115721A1 (published 2024).
Where two headings read alike, the source gives them in different places.

B1: 10-O18-A (antibody, V domains shown)
VH: QVQLQESGPGLVKPSETLSLTCTVSGGSINSYYWSWIRQPPGKGLEWIGYIFYSGITNYNPSLKSRVTISLDTSKNQFSLKLSSVTAADTAVYYCARIGVAGFYFDYWGQGTLVTVSS
VL: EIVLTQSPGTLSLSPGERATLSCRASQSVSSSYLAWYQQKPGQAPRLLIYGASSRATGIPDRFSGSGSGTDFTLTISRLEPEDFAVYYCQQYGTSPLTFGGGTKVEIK
B2: 2-C8-A (antibody, V domains shown)
VH: EVQLVESGGGLVQPGGSQRLSCAASGFTFSSYWMNWVRQAPGKGLEWVANIKEDGSEKYYVDSVKGRFTISRDNAKNSLYLQMNSLRAEDTAVYYCARDPGWAPFDYWGQGTLVTVSS
VL: DIQMSQSPSSLSASVGDRVTITCRASQGISNYLAWFQQKPGKAPKSLIYAASSLQSGVPSKFSGSGSGTDFTLAISSLQPEDFATYYCQQYNSFPYTFGQGTTLEIK
B3: 6-G23-F (antibody, V domains shown)
VH: QVQLVQSGAEVKKPGASVKVSCKASGYTFTSYYIHWVRQAPGQGLEWMGIIDPSDGSTNYAQKFQGRVTMTRDTSTSTVYMELSSLRSEDTAVYYCARDREYNYYGLDVWGQGTTVTVSS
VL: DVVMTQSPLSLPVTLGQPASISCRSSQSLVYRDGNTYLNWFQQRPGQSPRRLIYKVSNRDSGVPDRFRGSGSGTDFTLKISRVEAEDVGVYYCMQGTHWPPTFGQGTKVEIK
B4: 7-I1-B (antibody, V domains shown)
VH: EVQLVESGGGLVKPGGSLRLSCAASGFTFSNTWMSWVRQAPGKGLEWVGRIKSKSDGGTTDYAAPVKGRFTISRDDSKNTLYLQMNSLKTEDTAVYYCTQYYWNSFDYWGQGTLVTVSS
VL: not shown

How the values were obtained:
Test in all cases: BLI (Octet HTX)
[1] = target: T1, Recombinant Human DLL3 Protein (amino acids Ala27-Ala479, cat #9749-DL, R&D Systems) (UniProt Q9NYJ7 27-479)
T1 chain: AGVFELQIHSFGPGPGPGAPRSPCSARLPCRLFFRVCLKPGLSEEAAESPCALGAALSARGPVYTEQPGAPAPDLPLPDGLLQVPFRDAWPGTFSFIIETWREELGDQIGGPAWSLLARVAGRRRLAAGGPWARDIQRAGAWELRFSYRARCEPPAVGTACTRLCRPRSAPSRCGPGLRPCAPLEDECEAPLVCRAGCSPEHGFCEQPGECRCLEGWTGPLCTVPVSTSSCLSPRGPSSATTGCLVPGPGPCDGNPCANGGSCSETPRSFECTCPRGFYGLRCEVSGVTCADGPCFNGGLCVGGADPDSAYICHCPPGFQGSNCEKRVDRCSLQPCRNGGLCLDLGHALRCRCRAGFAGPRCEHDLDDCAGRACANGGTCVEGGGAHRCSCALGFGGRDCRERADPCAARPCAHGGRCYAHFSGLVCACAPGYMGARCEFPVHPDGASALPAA

[2] = target: T1, Recombinant Human DLL3 Protein (amino …)
[3] = target: T1, Recombinant Human DLL3 Protein (amino …)

Binder | Kd [1] [nM] | Kd [2] [nM] | Kd [3] [nM]
B1 | 0.62 | 0.602 | –
B2 | 0.668 | 0.668 | –
B3 | 0.16 | – | 0.16
B4 | 0.68 | – | 0.686
